Measurements from the supplement of paper PMC10724198.
± gives the standard deviation of the averaged measurements.

Test system: Saccharomyces cerevisiae
Test: protein stability index of tFT-peptide fusion (C-terminal peptide) (PSI (0-1 scale)); higher = more stable (slower turnover)
Settings: temperature: 30 C
Experimental: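 MPS profiling in S. cerevisiae of the yeast C-terminome library: the last 12 aa of each annotated ORF are fused to the C-terminus of a sfGFP-mCherry timer, after a GGGS linker. Cells are FACS-sorted into 8 mCherry/sfGFP bins and deep-sequenced. PSI runs from 0 (unstable) to 1 (stable); wild type and das1Δ backgrounds, two technical replicates each.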

[1] = genetic background: das1 deletion

FDTSAQSDRKHS [DCV1 C-terminal 12 aa] gave a protein stability index [1] of 0.719 ± 0.011 and a protein stability index (genetic background: wild type) of 0.692 ± 0.018.

With FEDCCRWNEKQG [HIS6 C-terminal 12 aa] the protein stability index [1] was 0.668 ± 0.022 and the protein stability index (genetic background: wild type) was 0.694 ± 0.016.

For FENGGKLKEVDK [MDM35 C-terminal 12 aa], the protein stability index [1] was 0.686 ± 0.01 and the protein stability index (genetic background: wild type) was 0.7211 ± 0.0027.

Work on “FFFPLFLFLYHL [YHR180W-A C-terminal 12 aa]” yielded a protein stability index [1] of 0.436 ± 0.0054 and a protein stability index (genetic background: wild type) of 0.306 ± 0.0032.

For FFMIMVMVINFI [FIG2 C-terminal 12 aa], the protein stability index [1] was 0.195 ± 0.03 and the protein stability index (genetic background: wild type) was 0.199 ± 0.0042.

FFTKLFKKKSSR [MSC3 C-terminal 12 aa] was tested, and the protein stability index [1] was 0.705 ± 0.02 and the protein stability index (genetic background: wild type) was 0.6832 ± 0.0021.

FFVFLFWWIFLK [SEC22 C-terminal 12 aa] showed a protein stability index [1] of 0.155 ± 0.019 and a protein stability index (genetic background: wild type) of 0.131 ± 0.015.

Work on FGQDGCLYIYNQ [YHR045W C-terminal 12 aa] yielded a protein stability index [1] of 0.713 ± 0.015 and a protein stability index (genetic background: wild type) of 0.698 ± 0.021.

FHTLENHLKGNS [ADR1 C-terminal 12 aa] showed a protein stability index [1] of 0.697 ± 0.02 and a protein stability index (genetic background: wild type) of 0.731 ± 0.064.

Sequence FIAQAEAEAETD [GRS1 C-terminal 12 aa] has a protein stability index [1] of 0.688 ± 0.014 and a protein stability index (genetic background: wild type) of 0.669 ± 0.017.

In the case of FIRKIYSAIKVE [TMN2 C-terminal 12 aa], the protein stability index [1] is reported as 0.385 ± 0.012 and the protein stability index (genetic background: wild type) is reported as 0.268 ± 0.016.

FKIFAKLFCTRK [HLR1 C-terminal 12 aa] gave a protein stability index [1] of 0.71093 ± 0.00038 and a protein stability index (genetic background: wild type) of 0.6936 ± 0.0041.

FKKSVDQMNAST [PSY2 C-terminal 12 aa] showed a protein stability index [1] of 0.692 ± 0.026 and a protein stability index (genetic background: wild type) of 0.691 ± 0.017.

Work on “FLSNEPTFLGCV [YPL135C-A C-terminal 12 aa]” yielded a protein stability index [1] of 0.72 ± 0.018 and a protein stability index (genetic background: wild type) of 0.722 ± 0.033.

With FLVNTTNKKESD [YIL092W C-terminal 12 aa] the protein stability index [1] was 0.6861 ± 0.004 and the protein stability index (genetic background: wild type) was 0.693 ± 0.024.

FMSNTLFNSSLV [YPR003C C-terminal 12 aa] was tested, and the protein stability index [1] was 0.668 ± 0.012 and the protein stability index (genetic background: wild type) was 0.693 ± 0.037.

For FQRRSISGLGDL [INP1 C-terminal 12 aa], the protein stability index [1] was 0.711 ± 0.0092 and the protein stability index (genetic background: wild type) was 0.676 ± 0.031.

For FQTITGEEKEKK [ECM16 C-terminal 12 aa], the protein stability index [1] was 0.708 ± 0.027 and the protein stability index (genetic background: wild type) was 0.728 ± 0.023.

For FRSQRLHMDSKP [BUD27 C-terminal 12 aa], the protein stability index [1] was 0.727 ± 0.018 and the protein stability index (genetic background: wild type) was 0.6682 ± 0.0053.

FSALMGESDDEE [TIF4631 C-terminal 12 aa] showed a protein stability index [1] of 0.659 ± 0.019 and a protein stability index (genetic background: wild type) of 0.678 ± 0.047.

For FSTWDIADKQEA [PMT2 C-terminal 12 aa], the protein stability index [1] was 0.717 ± 0.016 and the protein stability index (genetic background: wild type) was 0.732 ± 0.023.

FSVEQREKPSNN [GRX6 C-terminal 12 aa] gave a protein stability index [1] of 0.69394 ± 0.0003 and a protein stability index (genetic background: wild type) of 0.69949 ± 0.00033.

With FTPSNQSHGNFY [TEC1 C-terminal 12 aa] the protein stability index [1] was 0.718 ± 0.015 and the protein stability index (genetic background: wild type) was 0.662 ± 0.007.

Work on FVYKGVRKPKRN [SEN15 C-terminal 12 aa] yielded a protein stability index [1] of 0.752 ± 0.033 and a protein stability index (genetic background: wild type) of 0.778 ± 0.1.

In the case of FYHVFDEPRYYL [CWH43 C-terminal 12 aa], the protein stability index [1] is reported as 0.7524 ± 0.0054 and the protein stability index (genetic background: wild type) is reported as 0.7087 ± 0.0018.

In the case of GAGALAAAAMLL [CWP2 C-terminal 12 aa], the protein stability index [1] is reported as 0.711 ± 0.032 and the protein stability index (genetic background: wild type) is reported as 0.665 ± 0.027.

GASAEDNTHPDE [NAB6 C-terminal 12 aa] showed a protein stability index [1] of 0.694 ± 0.011 and a protein stability index (genetic background: wild type) of 0.681 ± 0.046.

Sequence GDENFVILEFEC [OAZ1 C-terminal 12 aa] has a protein stability index [1] of 0.7 ± 0.019 and a protein stability index (genetic background: wild type) of 0.732 ± 0.036.

GDIIKLRESVNA [YJL215C C-terminal 12 aa] was tested, and the protein stability index [1] was 0.6729 ± 0.0061 and the protein stability index (genetic background: wild type) was 0.73 ± 0.05.

GDLVNAIMSLSK [EGD2 C-terminal 12 aa] was tested, and the protein stability index [1] was 0.696 ± 0.013 and the protein stability index (genetic background: wild type) was 0.696 ± 0.025.

GEASTGNRLSFK [BNI1 C-terminal 12 aa] was tested, and the protein stability index [1] was 0.719 ± 0.013 and the protein stability index (genetic background: wild type) was 0.72 ± 0.022.

For GFLGIRWGPRKD [TIM21 C-terminal 12 aa], the protein stability index [1] was 0.7247 ± 0.00099 and the protein stability index (genetic background: wild type) was 0.6861 ± 0.006.

Sequence GFQATVGKRRRM [SUI3 C-terminal 12 aa] has a protein stability index [1] of 0.699 ± 0.019 and a protein stability index (genetic background: wild type) of 0.703 ± 0.0081.

GGIRKISGSIKK [CDC14 C-terminal 12 aa] showed a protein stability index [1] of 0.71 ± 0.01 and a protein stability index (genetic background: wild type) of 0.667 ± 0.037.

With GGSRGGFRGGRR [GAR1 C-terminal 12 aa] the protein stability index [1] was 0.685 ± 0.041 and the protein stability index (genetic background: wild type) was 0.707 ± 0.041.

GHLSSSRRRLRT [SUV3 C-terminal 12 aa] showed a protein stability index [1] of 0.7217 ± 0.0043 and a protein stability index (genetic background: wild type) of 0.7 ± 0.034.

GIDVHYVFRTYH [CIN10 C-terminal 12 aa] showed a protein stability index [1] of 0.704 ± 0.012 and a protein stability index (genetic background: wild type) of 0.6311 ± 0.0031.

GKTTYSEVWAGY [VVS1 C-terminal 12 aa] gave a protein stability index [1] of 0.746 ± 0.04 and a protein stability index (genetic background: wild type) of 0.741 ± 0.013.

Sequence GLFPSNYVSLGN [ABP1 C-terminal 12 aa] has a protein stability index [1] of 0.689 ± 0.0081 and a protein stability index (genetic background: wild type) of 0.721 ± 0.01.

In the case of GLLLPLCHRKRS [YOR012W C-terminal 12 aa], the protein stability index [1] is reported as 0.706 ± 0.015 and the protein stability index (genetic background: wild type) is reported as 0.411 ± 0.039.

GLRVANPDSDPE [YDR239C C-terminal 12 aa] showed a protein stability index [1] of 0.7 ± 0.0077 and a protein stability index (genetic background: wild type) of 0.721 ± 0.081.

In the case of GLSLSFSKKLDL [DSN1 C-terminal 12 aa], the protein stability index [1] is reported as 0.685 ± 0.023 and the protein stability index (genetic background: wild type) is reported as 0.671 ± 0.026.

“GSTSCPLLRLSR [YHR073C-B C-terminal 12 aa]” gave a protein stability index [1] of 0.707 ± 0.021 and a protein stability index (genetic background: wild type) of 0.685 ± 0.013.

With GYAKTWSIASAN [CTT1 C-terminal 12 aa] the protein stability index [1] was 0.714 ± 0.011 and the protein stability index (genetic background: wild type) was 0.674 ± 0.028.

GYCKVHPVSDSK [ASI1 C-terminal 12 aa] gave a protein stability index [1] of 0.706 ± 0.0072 and a protein stability index (genetic background: wild type) of 0.656 ± 0.036.

Sequence HAGTRPVLLLQK [YKL053W C-terminal 12 aa] has a protein stability index [1] of 0.694 ± 0.016 and a protein stability index (genetic background: wild type) of 0.674 ± 0.04.

HCTVVLPSILKR [YHR217C C-terminal 12 aa] was tested, and the protein stability index [1] was 0.714 ± 0.024 and the protein stability index (genetic background: wild type) was 0.705 ± 0.0033.

With HDHHNDVPEAPV [RAD1 C-terminal 12 aa] the protein stability index [1] was 0.6941 ± 0.0012 and the protein stability index (genetic background: wild type) was 0.692 ± 0.022.

In the case of HEEVKHTADTVD [CDC37 C-terminal 12 aa], the protein stability index [1] is reported as 0.71118 ± 0.00024 and the protein stability index (genetic background: wild type) is reported as 0.67 ± 0.018.

In the case of HEWKTSINAIST [SWT1 C-terminal 12 aa], the protein stability index [1] is reported as 0.6881 ± 0.0024 and the protein stability index (genetic background: wild type) is reported as 0.727 ± 0.079.

For HFKTLVEAFTRN [VPS52 C-terminal 12 aa], the protein stability index [1] was 0.709 ± 0.0082 and the protein stability index (genetic background: wild type) was 0.714 ± 0.047.

HFQYKGKPSRRF [BUB1 C-terminal 12 aa] was tested, and the protein stability index [1] was 0.693 ± 0.012 and the protein stability index (genetic background: wild type) was 0.685 ± 0.035.

HISLKCIVYKEY [YER135C C-terminal 12 aa] showed a protein stability index [1] of 0.638 ± 0.0081 and a protein stability index (genetic background: wild type) of 0.665 ± 0.016.

Sequence HKGAVCVALNDV [LST8 C-terminal 12 aa] has a protein stability index [1] of 0.6883 ± 0.0052 and a protein stability index (genetic background: wild type) of 0.696 ± 0.051.

Work on HKGNGTDKVFVF [AIM33 C-terminal 12 aa] yielded a protein stability index [1] of 0.7139 ± 0.001 and a protein stability index (genetic background: wild type) of 0.693 ± 0.017.

HKNHSVPRLIQV [YCL068C C-terminal 12 aa] showed a protein stability index [1] of 0.6194 ± 0.0049 and a protein stability index (genetic background: wild type) of 0.654 ± 0.048.

With HKQCDSLLDRLK [PTA1 C-terminal 12 aa] the protein stability index [1] was 0.698 ± 0.024 and the protein stability index (genetic background: wild type) was 0.7053 ± 0.0067.

In the case of HLEKKEPKSRKK [YDL129W C-terminal 12 aa], the protein stability index [1] is reported as 0.724 ± 0.013 and the protein stability index (genetic background: wild type) is reported as 0.689 ± 0.03.

Sequence HLTKLCIFPGLP [YLR282C C-terminal 12 aa] has a protein stability index [1] of 0.68857 ± 5.1e-05 and a protein stability index (genetic background: wild type) of 0.70209 ± 0.00069.

Work on HLYDHILEKMVK [CNM67 C-terminal 12 aa] yielded a protein stability index [1] of 0.694 ± 0.032 and a protein stability index (genetic background: wild type) of 0.7 ± 0.018.

For HLYFQNPPPAMC [HOT13 C-terminal 12 aa], the protein stability index [1] was 0.72 ± 0.021 and the protein stability index (genetic background: wild type) was 0.728 ± 0.031.
